The target of the test is T1, GST-tagged full-length TAF15 (human, UniProt Q92804 1-592).
T1 construct: TAF15, human, full length, cloned into pGEX-6p-1; Immobilised on glutathione-Sepharose 4B in the pull-down; also called GST-TAF15; source: E. coli BL21, purified (Glutathione Sepharose)
The test can be described thus: pull-down; GST pull-down: GST-TAF15 or GST alone immobilised on glutathione-Sepharose 4B, His-NOP58 added, 1 h at 4 °C in 50 mM Tris-HCl pH 7.5, 150 mM NaCl, 10 mM MgCl2, 10% glycerol, 1% Triton X-100, 1 mM DTT, 1% BSA; western blot; also with in vitro transcribed INHEG. The conditions noted are these: both partners purified. In general terms: Immunoblotting shows a protein as a band on a membrane.

T1 sequence (Q92804 whole entry): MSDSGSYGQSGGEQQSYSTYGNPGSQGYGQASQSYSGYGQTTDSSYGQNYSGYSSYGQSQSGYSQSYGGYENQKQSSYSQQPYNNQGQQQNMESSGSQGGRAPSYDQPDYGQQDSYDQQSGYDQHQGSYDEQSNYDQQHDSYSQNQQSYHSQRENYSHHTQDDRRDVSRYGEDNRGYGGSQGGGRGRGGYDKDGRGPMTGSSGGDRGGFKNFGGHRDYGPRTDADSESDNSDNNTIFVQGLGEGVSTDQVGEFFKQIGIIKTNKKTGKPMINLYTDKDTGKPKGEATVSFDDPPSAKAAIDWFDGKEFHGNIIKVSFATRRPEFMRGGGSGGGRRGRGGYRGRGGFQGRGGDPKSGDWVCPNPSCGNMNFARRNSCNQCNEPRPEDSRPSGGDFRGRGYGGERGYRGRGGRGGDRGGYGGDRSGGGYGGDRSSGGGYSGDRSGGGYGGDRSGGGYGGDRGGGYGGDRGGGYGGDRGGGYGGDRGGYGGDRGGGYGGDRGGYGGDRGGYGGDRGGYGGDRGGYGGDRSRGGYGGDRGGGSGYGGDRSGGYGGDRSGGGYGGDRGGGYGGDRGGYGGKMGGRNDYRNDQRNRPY

B1: His-tagged full-length NOP58 (natural protein, human, UniProt Q9Y2X3 1-529, looked up)
chain: MLVLFETSVGYAIFKVLNEKKLQEVDSLWKEFETPEKANKIVKLKHFEKFQDTAEALAAFTALMEGKINKQLKKVLKKIVKEAHEPLAVADAKLGGVIKEKLNLSCIHSPVVNELMRGIRSQMDGLIPGVEPREMAAMCLGLAHSLSRYRLKFSADKVDTMIVQAISLLDDLDKELNNYIMRCREWYGWHFPELGKIISDNLTYCKCLQKVGDRKNYASAKLSELLPEEVEAEVKAAAEISMGTEVSEEDICNILHLCTQVIEISEYRTQLYEYLQNRMMAIAPNVTVMVGELVGARLIAHAGSLLNLAKHAASTVQILGAEKALFRALKSRRDTPKYGLIYHASLVGQTSPKHKGKISRMLAAKTVLAIRYDAFGEDSSSAMGVENRAKLEARLRTLEDRGIRKISGTGKALAKTEKYEHKSEVKTYDPSGDSTLPTCSKKRKIEQVDKEDEITEKKAKKAKIKVKVEEEEEEKVAEEEETSVKKKKKRGKKKHIKEEPLSEEEPCTSTAIASPEKKKKKKKKRENED
notes: NOP58, human, full length, cloned into pET-28a; also called His-NOP58; source: E. coli BL21, purified (Ni-NTA)
With B1, the binding result is listed as “binds”.

Source of the values: article PMC10657414, “LncRNA INHEG promotes glioma stem cell maintenance and tumorigenicity through regulating rRNA 2’-O-methylation” (Nature Communications, 2023).
